{"source": "patent US20220152103A1", "about": "(LEUCID BIO, published 2022)", "binders": {"B1": {"name": "ICR12 rat anti-human HER2 antibody (antibody, V domains shown)", "VH": "EVQLQESGPGLVKPSQSLSLTCSVTGYSITTDYWGWIRKFPGNKMEWMGYISYSGSTGYNPSLKSRISITRDTSKSQFFLQLNSVTTEDTATYYCARYSSLDYWGRGVMVAVSS", "VL": "DVVMTQTPPSLSVAIGQSVSISCKSSQSLVYSDGKTYLHWLLQSPGRSPKRLIYQVSNLGSGVPDRFSGTGSQKDFTLKISRVEAEDLGVYYCAQTTHFPLTFGSGTKLEIK", "notes": "VH and VL stand within it"}}, "target": "T1, human HER2 on tumor cells (MDA-MB-468-HER2++ cells transduced with human HER2; T47D cells) (human, UniProt P04626 23-1255)", "T1 construct": "whole, on cells; also called ErbB2", "test": "flow cytometry sorting of MDA-MB-468-HER2++ cells"}
{"binder": "B1", "values": [{"measurement": "binding result", "result": "binds"}]}
